Target: Fas/CD95 (human (endogenous in U-2 OS)) (UniProt P25445)
Chain of UniProt P25445 (P25445 26-335): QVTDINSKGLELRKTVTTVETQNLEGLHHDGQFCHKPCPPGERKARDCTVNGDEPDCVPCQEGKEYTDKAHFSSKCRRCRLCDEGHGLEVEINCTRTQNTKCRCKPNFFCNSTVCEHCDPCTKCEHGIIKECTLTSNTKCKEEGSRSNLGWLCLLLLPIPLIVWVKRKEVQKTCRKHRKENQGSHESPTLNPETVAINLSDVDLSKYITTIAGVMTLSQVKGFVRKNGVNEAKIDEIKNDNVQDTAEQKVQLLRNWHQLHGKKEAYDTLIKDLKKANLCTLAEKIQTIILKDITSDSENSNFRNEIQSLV

Fas ligand (from UniProt P48023 1-281)
U-2 OS cell death with no granzyme-B FRET signal change in co-culture with primary NK cells (3-day cultured in IL-2), with 1.5 μg/ml anti-Fas neutralizing antibody (clone ZB4); control about 65%: 28%

Source: paper PMC5216932
